Positions count from the first letter of the chain named. Each block holds one binder with its values, some of them ahead of it.
How the values were obtained:
human IL-23 [1] = biological target: T1, human IL-23 (human, UniProt P29460 23-328; Q9NPF7 20-189); test: competition ELISA: Adnectin + 1 nM IL-23 on coated IL-23R-Fc
T1 construct: Secreted from Sf9 cells for the crystal structure; One molecule is used for all three; also called Interleukin-23
T1 sequence (looked up) 1: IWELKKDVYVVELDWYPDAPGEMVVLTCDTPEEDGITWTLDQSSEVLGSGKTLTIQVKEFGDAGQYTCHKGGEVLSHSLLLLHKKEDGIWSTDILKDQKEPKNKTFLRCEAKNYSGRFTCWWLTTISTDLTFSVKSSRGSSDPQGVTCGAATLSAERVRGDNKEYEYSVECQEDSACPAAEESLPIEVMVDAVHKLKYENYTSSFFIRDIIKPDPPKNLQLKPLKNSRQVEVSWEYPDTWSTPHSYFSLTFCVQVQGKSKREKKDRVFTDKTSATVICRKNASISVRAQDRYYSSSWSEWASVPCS
T1 sequence (looked up) 2: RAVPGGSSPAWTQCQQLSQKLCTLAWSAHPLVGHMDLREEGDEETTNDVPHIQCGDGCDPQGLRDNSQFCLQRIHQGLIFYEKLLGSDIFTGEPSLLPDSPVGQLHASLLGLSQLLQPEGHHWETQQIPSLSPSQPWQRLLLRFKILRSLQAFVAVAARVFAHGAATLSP

human IL-23 [2] = biological target: T1, human IL-23; test: ratio of competition ELISA IC50, parent/mutant
human IL-23 [3] = biological target: T1, human IL-23; test: SPR (Biacore T100), immobilized human IL-23, single cycle kinetics

IC50 (human IL-23 [1]): 1 nM
Activity (parent/mutant) (human IL-23 [2]): 1 ratio
Kd (human IL-23 [3]): 2 nM
B1: Adnectin 2 (designed binder)
chain: MGVSDVPRDLEVVAATPTSLLISWEHDYPYRRYYRITYGETGGNSPVQEFTVPKDVDTATISGLKPGVDYTITVYAVTSSYKYDMQYSPISINYRTEIDKPSQHHHHHH
notes: also called anti-IL-23 Adnectin; ATI-000929

IC50 (human IL-23 [1]): 8.3 nM
Activity (parent/mutant) (human IL-23 [2]): 0.1 ratio
B2: Adnectin 2 P87→A (designed binder)
chain: B1 chain with P89A

IC50 (human IL-23 [1]): 0.83 nM
Activity (parent/mutant) (human IL-23 [2]): 1.2 ratio
B3: Adnectin 2 V45→D (designed binder)
chain: B1 chain with V47D

IC50 (human IL-23 [1]): 13 nM
Activity (parent/mutant) (human IL-23 [2]): 0.08 ratio
B4: Adnectin 2 Y28→A (designed binder)
chain: B1 chain with Y30A

IC50 (human IL-23 [1]): 0.26 nM
Activity (parent/mutant) (human IL-23 [2]): 3.8 ratio
B5: Adnectin 2 Y73→Q (designed binder)
chain: B1 chain with Y75Q

IC50 (human IL-23 [1]): 0.65 nM
Activity (parent/mutant) (human IL-23 [2]): 1.5 ratio
B6: Adnectin 2 Y73→A (designed binder)
chain: B1 chain with Y75A

IC50 (human IL-23 [1]): 35 nM
Activity (parent/mutant) (human IL-23 [2]): 0.03 ratio
B7: Adnectin 2 Y81→A (designed binder)
chain: B1 chain with Y83A

IC50 (human IL-23 [1]): 1.7 nM
Activity (parent/mutant) (human IL-23 [2]): 0.6 ratio
B8: Adnectin 2 T35→N (designed binder)
chain: B1 chain with T37N

IC50 (human IL-23 [1]): 0.51 nM
Activity (parent/mutant) (human IL-23 [2]): 1.9 ratio
B9: Adnectin 2 V45→E (designed binder)
chain: B1 chain with V47E

IC50 (human IL-23 [1]): 1.2 nM
Activity (parent/mutant) (human IL-23 [2]): 0.8 ratio
B10: Adnectin 2 Y73→N (designed binder)
chain: B1 chain with Y75N

IC50 (human IL-23 [1]): 1.2 nM
Activity (parent/mutant) (human IL-23 [2]): 0.8 ratio
B11: Adnectin 2 Y73→R (designed binder)
chain: B1 chain with Y75R

IC50 (human IL-23 [1]): 5.7 nM
Activity (parent/mutant) (human IL-23 [2]): 0.2 ratio
B12: Adnectin 2 V75→K (designed binder)
chain: B1 chain with V77K

IC50 (human IL-23 [1]): 49 nM
Activity (parent/mutant) (human IL-23 [2]): 0.02 ratio
B13: Adnectin 2 T35→D (designed binder)
chain: B1 chain with T37D

IC50 (human IL-23 [1]): 0.6 nM
Activity (parent/mutant) (human IL-23 [2]): 1.7 ratio
B14: Adnectin 2 T35→E (designed binder)
chain: B1 chain with T37E

IC50 (human IL-23 [1]): 0.34 nM
Activity (parent/mutant) (human IL-23 [2]): 2.9 ratio
B15: Adnectin 2 V45→Q (designed binder)
chain: B1 chain with V47Q

IC50 (human IL-23 [1]): 2.2 nM
Activity (parent/mutant) (human IL-23 [2]): 0.4 ratio
B16: Adnectin 2 V75→Y (designed binder)
chain: B1 chain with V77Y

IC50 (human IL-23 [1]): 0.54 nM
Activity (parent/mutant) (human IL-23 [2]): 1.8 ratio
B17: Adnectin 2 V45→N (designed binder)
chain: B1 chain with V47N

IC50 (human IL-23 [1]): 1 nM
Activity (parent/mutant) (human IL-23 [2]): 1 ratio
B18: Adnectin 2 T35→Q (designed binder)
chain: B1 chain with T37Q

IC50 (human IL-23 [1]): 2.3 nM
Activity (parent/mutant) (human IL-23 [2]): 0.4 ratio
B19: Adnectin 2 V75→Q (designed binder)
chain: B1 chain with V77Q
